Results on five molecules are retold here after patent US8962271B2, “Fructosyl peptidyl oxidase” (Roche Diagnostics Operations, Inc., priority 2009, dated 2015).

Read-outs that look alike come from different tables or passages of the source.

For series [1], the system named is CC(C)[C@H](NCC(=O)[C@@H](O)[C@H](O)[C@H](O)CO)C(=O)O. Briefly: purified protein, by the assay type. The settings on record: other: substrate FV; apparent Km; 4A.A/TODB/POD.
Protocol: (§4) Escherichia coli BL21 (DE3) transformed with pEPN (pET28a-PnFPOX) was grown aerobically at 37° C. in LB medium (7 L) containing 50 μg kanamycin ml^−1. After reaching an A660 nm value of 1.4, the cells were induced with 0.3 mM IPTG, and the incubation was continued at 25° C. until reaching an A660 nm value of 3.0. The cells were harvested by centrifugation and a quarter of harvested cells (approx. 10.5 g) were resuspended in 10 mM PPB, pH 7.0, and lysed by 2 passages through a French press (1,000 kg cm^−2). The lysate was centrifuged at 10,000 g at 4° C. for 20 min, and the supernatant was centrifuged at 40,000 rpm at 4° C. for 90 min. The supernatant was then dialyzed against 10 mM PPB, pH 8.0, containing 25 μM FAD.
(§5) Ammonium sulfate was added to the dialyzed supernatant to 35% saturation and then the precipitate formed was pelleted by centrifugation at 15,000 g for 20 min. The resultant precipitate was dissolved in 10 mM PPB, pH 8.0, containing 25 μM FAD and 1% mannose and dialyzed at 4° C. against the same buffer, and subsequently dialyzed against 10 mM PPB, pH 8.0, containing 25 μM FAD. The dialyzed enzyme solution was applied to a RESOURCE Q column (GE Healthcare) equilibrated with 10 mM PPB, pH 8.0. […] The active flow-through fractions were collected and dialyzed against 10 mM PPB, pH 7.0.
(§6) The dialyzed enzyme solution was applied to a HiLoad 16/60 Superdex 75 pg column (GE Healthcare) equilibrated with 10 mM PPB, pH 7.0. Gel filtration chromatography was carried out with the same buffer. The active fractions were collected, and the purified enzyme solution was dialyzed against 10 mM PPB, pH 7.0 containing 100 μM FAD, and stored at 4° C. The purity of the purified enzyme was confirmed by SDS-PAGE, and the protein concentration was measured using a DC Protein Assay Kit (Bio-Rad, CA, USA).
For series [2], the system named is CC(C)[C@H](NCC(=O)[C@@H](O)[C@H](O)[C@H](O)CO)C(=O)N[C@@H](Cc1cnc[nH]1)C(=O)O. Briefly: purified protein, by the assay type. The settings on record: other: substrate FVH; apparent Km; 4A.A/TODB/POD.
Protocol: as §4, §5, §6
The test system of series [3] is fructosyl peptidyl oxidase FPOX-C (Coniochaeta sp. NISL 9330; GenBank: BAD00186.1). The conditions noted are these: cited from earlier work.
The subject of series [4] is fructosyl peptidyl oxidase FPOX-E (Eupenicillum terrenum ATCC 18547; GenBank: BAD00185.1). The settings on record: cited from earlier work.
A short description of series [5]: Oxidase activity, 4AA/TODB/POD system, substrate FV. It counts as biochemical. The method, then: (§1) The water-soluble fraction was examined for the oxidase activity using a POD/TODB/4A.A. method with three substrates: fructosyl valine (FV), fructosyl lysine (FK), and fructosyl valyl histidine (FVH).
(§2) The oxidase activity was assayed using 4A.A/TODB/POD with varying concentrations of substrates, FV, FK and FVH. The absorbance at 546 nm was monitored. Typical Michaelis-Menten curves were obtained with FV and FVH, but not with FK. […] A high VmaxKm^−1 value for FV (42.8 U mg^−1 mM^−1) indicates high specificity toward FV of this enzyme. It should be noted that VmaxKm^−1 value for FVH is also considerable (14.7 U mg^−1 mM^−1, 34% of VmaxKm^−1 for FV). This activity toward FVH of PnFPOX will be beneficial in the enzyme-based measurement of HbA1c. For comparison, the oxidase activity of known fructosyl peptidyl oxidases (FPOX-C and FPOX-E) was also included in the table (Hirokawa et al. ibid).
(§3) The oxidase activity of the fructosyl peptidyl oxidases PnFPOX and FPOX-C on a fructosyl hexapeptide (F6P: Fru-Val-His-Leu-Thr-Pro-Glu) was assayed without addition of Proteinase N. The enzyme activity was measured in a 4AA/TODB/POD system as described in Example 2, with the substrate concentration of 1 mM for FV and FVH and 5 mM for F6P.

Series [6] in a line: Oxidase activity, 4AA/TODB/POD system, substrate FVH. It counts as biochemical. The method, then: as §1, §2, §3
Series [7] in a line: Oxidase activity, 4AA/TODB/POD system, substrate FK. It counts as biochemical. The conditions noted are these: water-soluble fraction; POD/TODB/4A.A. method; in words. The method, then: as §1, §2
Series [8] can be described thus: Thermostability: residual activity after heat treatment. The class given is physicochemical. The settings on record: heat-treated at 50° C. for 10 minutes in 10 mM PPB (pH 7.0). The method, then: Thermostability of PnFPOX was evaluated by incubating the purified enzyme solution in 10 mM PPB (pH 7.0) at various temperatures for 10 minutes and then measuring the residual activity. The activity of PnFPOX was maintained about 75% up to 50° C. […] (Hirokawa et al. ibid).

The nature of series [9]: Oxidase activity toward fructosyl hexapeptide without Proteinase N, 4AA/TODB/POD system. It counts as biochemical. The method, then: as §3
Where [10] appears, read: substrate concentration 1 mM, 4AA/TODB/POD.
Where [11] appears, read: water-soluble fraction, POD/TODB/4A.A. method, in words.

By Km is commonly meant the substrate concentration at which the rate is half of its maximum. For the molecule “fructosyl peptidyl oxidase PnFPOX from Phaeosphaeria nodorum, SEQ ID NO:1 (recombinant, purified) (Parastagonospora nodorum SN15)”, in series [1], the Km was 640 µM and the Vmax is recorded as 27.6 U/mg. In series [2], the Km amounted to 200 µM and the Vmax is 2.97 U/mg.
In the case of `CC(C)[C@H](NCC(=O)[C@@H](O)[C@H](O)[C@H](O)CO)C(=O)N[C@@H](Cc1cnc[nH]1)C(=O)O` [FVH, fructosyl valyl histidine], the Km was 2810 µM in series [3] (substrate FVH) and 2760 µM in series [4] (substrate FVH). Also, the Vmax in series [3] (substrate FVH) is 23.8 U/mg; in series [4] (substrate FVH), 5.43 U/mg.
For `CC(C)[C@H](NCC(=O)[C@@H](O)[C@H](O)[C@H](O)CO)C(=O)O` [FV, fructosyl valine], the Km was 824 µM in series [3] (substrate FV) and 318 µM in series [4] (substrate FV). In addition, the values for the Vmax in series [3] (substrate FV) and in series [4] (substrate FV) were 66.0 U/mg and 20.6 U/mg, respectively.
Regarding `N[C@@H](CCCCNCC(=O)[C@@H](O)[C@H](O)[C@H](O)CO)C(=O)O` [FK, fructosyl lysine], in [3] (substrate FK), the Km is 10600 µM and the Vmax is 23.4 U/mg. Besides, the Vmax in [4] (substrate FK) is reported as 0.42 U/mg.

B1: PnFPOX: fructosyl peptidyl oxidase derived from Phaeosphaeria nodorum, amino acid sequence SEQ ID NO:1, recombinant from E. coli (protein, listed as Phaeosphaeria nodorum)
chain: MAPSRANTSVIVVGGGGTIGSSTALHLVRSGYTPSNVTVLDAYPIPSSQSAGNDLNKIMGVSLRNPVDLQLALEARQMWNEDELFKKFFHNTGRLDCAHGEKDIADLKSGYQALVDAGLDATNEWLDSEDEILKRMPLLSRDQIKGWKAIFSKDGGWLAAAKAINAVGEYLRDQGVRFGFYGAGSFKAPLLAEGVCIGVETVDGTRYYADKVVLAAGAWSPTLVELHEQCVSKAWVYGHIQLTPEEAARYKNSPVVYNGDVGFFFEPNEHGVIKVCDEFPGFTRFKMHQPFGAKAPKRISVPRSHAKHPTDTIPDASDVSIRRAIATFMPQFKNKKMFNQAMCWCTDTADAALLICEHPEWKNFVLATGDSGHSFKLLPNIGKHVVELLEGTLADDLAHAWRWRPGSGDALKSRRSAPAKDLADMPGWNHDKPRANL
As to B1, the “FV (U/mg) oxidase activity” value in [5] (setting [10]) was 1.3 U/mg. Also, in series [5] (setting [11]), the “oxidizing activity to FV” value is “showed oxidizing activity”. For the same molecule, the “VmaxKm^−1 for FVH as % of VmaxKm^−1 for FV” value in series [6] is reported as 34%. In addition, the “FVH (U/mg) oxidase activity” value in [6] (setting [10]) worked out at 0.11 U/mg. In series [6] (setting [11]), the “oxidizing activity to FVH” value is “showed oxidizing activity”. Also, the “oxidizing activity to FK” value in [7] was “showed oxidizing activity”. Further, the residual activity result in series [8] was “about 75%”. Besides, the “capability of oxidizing fructosyl hexapeptide” value in series [9] (in words) is given as “capable of oxidizing fructosyl hexapeptide”. Also, the “F6P (U/mg) oxidase activity” value in series [9] (substrate concentration 5 mM, without Proteinase N) is recorded as 1.3 × 10^−3 U/mg.
